According to publication PMC8056383, “Entropic Inhibition: How the Activity of a AAA+ Machine Is Modulated by Its Substrate-Binding Domain” (ACS Chemical Biology, 2021):

B1: ΔNClpB, Thermus thermophilus ClpB lacking the N-terminal domain (domain or fragment)
chain: not shown
notes: ClpB, Thermus thermophilus, variant beginning at residue 141 (Val); lacks the first 140 residues; In the smFRET experiments one S288C-S631C protomer labelled with AF488/AF594 sat in hexamers of unlabelled ΔNClpB; also called NTD-truncated ClpB; truncated variant; source: cloned into a pET28b vector, expressed and purified (protocol in the Supplementary Methods)
B2: 23C-176C double-cysteine mutant of full-length ClpB, labelled with Alexa Fluor 488 and Alexa Fluor 594 (natural protein)
chain: not shown
modifications: Alexa Fluor 488 and Alexa Fluor 594 (C5 maleimide) on the cysteines at 23 and 176
notes: The ATPase assay used the fully labelled protein. smFRET and FLCS used one labelled protomer in hexamers of WT ClpB; source: cloned into a pET28b vector, expressed and purified (protocol in the Supplementary Methods)
B3: Thermus thermophilus ClpB, full-length (natural protein)
chain: not shown
notes: ClpB, Thermus thermophilus, full-length protein (NTD, NBD1, MD, NBD2); also called TT ClpB; TT; ClpB; source: cloned into a pET28b vector, expressed and purified (protocol in the Supplementary Methods)

Assays:
[1] = biological target: the molecule itself; experiment: native gel or EMSA; native polyacrylamide gel electrophoresis; assembly of ClpB and ΔNClpB (Figure S2)
[2] = biological target: the molecule itself; experiment: native gel or EMSA; native gel electrophoresis in the presence of 2 mM ATP; assembly of the 23C-176C construct (Figure S1)

Protein	binding result [1]	binding result [2]
B1	binds	–
B2	–	binds
B3	binds	–
